Measured values reported in US20250011363A1, “OPTIMIZED SHORTENED PEPTIDE THAT BINDS TO ACETYLCHOLINE RECEPTOR, AND USE THEREOF” (SKINMED CO., LTD., priority 2021, published 2025).

What follows are binders tested against acetylcholine receptor (assay: SPR, AchR immobilised on CM5 chip, peptide 10 uM).

Binder	Binding affinity (RU)
RDWIRR [6mer-2-671]	27
KHDMRR [6mer-2-667]	25
RHKMRK [6mer-2-691]	15
KCEDKK [6mer-2-698]	27
RHKDRK [6mer-2-660]	16
KADPRR [6mer-2-656]	11
RMKWRK [6mer-2-675]	14
RMPEKR [6mer-2-654]	20
KTEIRK [6mer-2-683]	33
KKWERK [6mer-2-674]	26
KTWAKR [6mer-2-701]	23
KFHNRK [6mer-2-685]	15
RDTWRR [6mer-2-681]	33
KYTNRR [6mer-2-692]	29
KFTDRK [6mer-2-706]	23
KTWEKK [6mer-2-686]	21
KDWHRK [6mer-2-704]	20
KCAVKK [6mer-2-697]	19
KCCWKK [6mer-2-664]	11

Binder	Binding affinity (RU)
RPMFRK [6mer-2-688]	13
RMKAKK [6mer-2-661]	29
RYWVKK [6mer-2-658]	23
RFCNKK [6mer-2-668]	13
KIWFRR [6mer-2-655]	31
RKWHKR [6mer-2-670]	33
RTWKRK [6mer-2-707]	21
KIPNKR [6mer-2-659]	22
KDSIRK [6mer-2-694]	22
RDKERR [6mer-2-689]	24
KCTAKK [6mer-2-676]	14
KCAERR [6mer-2-665]	18
RYSAKK [6mer-2-679]	20
KCWWRR [6mer-2-695]	28
RENWKK [6mer-2-677]	28
RAWVKK [6mer-2-708]	29
RPWHKK [6mer-2-700]	15
RNMERR [6mer-2-682]	33
RYTMKK [6mer-2-684]	14

Binder	Binding affinity (RU)
KIDDRK [6mer-2-672]	20
RENFKK [6mer-2-705]	11
KFAGRR [6mer-2-663]	24
KEMIKR [6mer-2-702]	18
KNMWRK [6mer-2-669]	15
KADGRK [6mer-2-687]	16
KEWWRR [6mer-2-678]	32
KPMDRR [6mer-2-666]	25
RIWPKR [6mer-2-709]	31
RFCGRK [6mer-2-673]	23
KNTIRR [6mer-2-693]	16
KFTMRK [6mer-2-690]	13
KNHGKR [6mer-2-680]	15
KFTKKK [6mer-2-696]	20
RKHERK [6mer-2-657]	32
KAHPKK [6mer-2-662]	11
KNAGKR [6mer-2-699]	23
RTMHKR [6mer-2-703]	14
